# According to patent publication US7854918B2, “Composition for medical use having improved water-solubility of peptide and metal-labeling efficiency and preparation for medical use comprising metal-labeled peptide” (Nihon Medi-Physics Co., Ltd., priority 2004, dated 2010):
# “Also recorded” adds a separate entry of the source. Square brackets hold non-standard residues; d marks the D form. Ends that are not written are not given here. * marks the point of attachment. Nle = CCCC[C@H](N)C(=O)O; For = O=C*
# Experiments:
# Assay type in all cases: physicochemical
# [1] = Elution rate: reverse-phase HPLC peak area of the peptide after vs before 0.22 μm filtration
# Experimental: (§1) Peptide 1, Peptide 2, and Peptide 3 (100 μg each) were separately added to 410 mM arginine solutions (pH 11) to adjust each total amount to 700 μL. Molarities in these solutions are 94 μM (Peptide 1), 99 μM (Peptide 2), and 161 μM (Peptide 3). […] Then, 200 μL each of the sample solutions was filtered with a filter Millex (registered trademark)-GV (trade name, manufactured by Nihon Millipore) with a pore size of 0.22 μm. The sample solutions before filtration and the sample solutions after filtration were respectively analyzed by reverse-phase HPLC. Peak area percentages were determined from the peak area values of the peptides before and after filtration and used as elution rates. HPLC analytical conditions are shown below.
# (§2) For a comparative example, Peptide 1, Peptide 2, and Peptide 3 were separately dissolved in each of water and dimethylsulfoxide (DMSO) to prepare samples having a peptide concentration of 94 μM, 99 μM, or 161 μM, which were studied in the same way as above.
# Column: Cosmosil 5C18-AR-300 (Manufactured by Nacalai Tesque, 4.6×150 mm)
# (§3) Detection: ultraviolet and visible spectrophotometer (detection wavelength: 220 nm)
# HPLC system: Alliance (manufactured by Waters, Japan)
# Eluant A: 0.1% trifluoroacetic acid (hereinafter, TFA)/purified water
# (§4) Eluant B: 0.1% TFA/acetonitrile
# (§5) Concentration gradient: 0 min (Eluant B 20%)→25 min (Eluant B 70%)
# (§6) Arginine, lysine, and histidine were separately dissolved in water to prepare 410 mM arginine solution, 489 mM lysine solution, and 90 mM histidine solution. An aqueous solution of sodium hydroxide and hydrochloric acid were added to these solutions to adjust the pH of the aqueous solutions of lysine and histidine to 8, 9, 10, and 11, and the pH of the aqueous solution of arginine to 8, 8.5, 9, 9.5, 10, and 11. Subsequently, Peptide 1 was added to these aqueous solutions to prepare 94 μM Peptide 1 solutions. […] Then, 200 μL each of the sample solutions was filtered with a filter Millex (registered trademark)-GV (trade name, manufactured by Nihon Millipore) with a pore size of 0.22 μm. The sample solutions before filtration and the sample solutions after filtration were respectively analyzed by reverse-phase HPLC. Peak area percentages were determined from the peak area values of Peptide 1 before and after filtration and used as elution rates. HPLC analytical conditions were the same as the conditions described in Example 1.
# (§7) Imidazole was dissolved in water to prepare 1 mM imidazole solution. pH was adjusted to 8, 8.5, and 9 by adding an appropriate amount of hydrochloric acid to this solution. Subsequently, Peptide 1 was added to these imidazole solutions to prepare 94 μM Peptide 1 solutions. […] Then, 200 μL each of the sample solutions was filtered with a filter Millex (registered trademark)-GV (trade name, manufactured by Nihon Millipore) with a pore size of 0.22 μm. The sample solutions before filtration and the sample solutions after filtration were respectively analyzed by reverse-phase HPLC. Peak area percentages were determined from the peak area values of Peptide 1 before and after filtration and used as elution rates. HPLC analytical conditions were the same as the conditions described in Example 1.
# (§8) Disodium hydrogen phosphate, sodium dihydrogen citrate, sodium ascorbate, and imidazole were separately dissolved in water to prepare their respective aqueous solutions with pH 9 at concentrations described in Table 4. pH adjustment was performed with hydrochloric acid and an aqueous solution of sodium hydroxide. The above-described aqueous solutions were separately added to the weighed Peptide 1 to prepare 94 μM Peptide 1 solutions. […] These Peptide 1 solutions were compared with the Peptide 1 sample solutions using the respective aqueous solutions of disodium hydrogen phosphate, sodium dihydrogen citrate, and sodium ascorbate used as comparative controls. […]
# [2] = External observation of peptide sample solutions (presence or absence of white turbidity)
# Experimental: as §1, §2, §6, §7
# as §8, with “controls. Subsequently, 200 μL each of the sample solutions was filtered with a filter Millex (registered trademark)-GV (trade name, manufactured by Nihon Millipore) with a pore size of 0.22 μm. The sample solutions before filtration and the sample solutions after filtration were respectively analyzed by reverse-phase HPLC.” for “controls.”
# [3] = Tc-99m labeling at room temperature, radiochemical purity by HPLC
# Experimental: (§9) Peptide 1 was dissolved in the aqueous solution of arginine with pH 10 obtained in Example 2 to prepare 9.4 μM peptide/arginine solution. 25 μL of a solution of 10 mL of 0.01 M hydrochloric acid supplemented with 5 mg of stannous chloride solution was added to 700 μL of the peptide/arginine solution, and 0.6 to 1.0 GBq of Tc-99m-sodium pertechnetate (hereinafter, 99 mTcO4^−) solution was quickly added thereto to adjust the total amount to 1 mL. After the labeling procedure, the peptide concentration was diluted to 6.6 μM. After shaking for several seconds, the solution was reacted at room temperature. A portion thereof was taken on 10 minutes and 90 minutes after the labeling procedure to determine each Tc-99m labeling rate by HPLC and TLC. The HPLC and TLC analyses were performed under conditions described below.
# (§10) For comparative controls, Peptide 1 was dissolved in dimethylsulfoxide (DMSO) and then diluted 10-fold with 100 mM phosphate buffer solution (hereinafter, PB) with pH 10 to prepare a peptide/DMSO/PB solution with the final peptide concentration of 9.4 μM. Alternatively, Peptide 1 was dissolved in PB to prepare a peptide/PB solution with the final peptide concentration of 9.4 μM. These solutions were labeled in the same way as in the peptide/arginine solution to determine each Tc-99m labeling rate by HPLC and TLC. After the labeling procedure, the peptide concentration was diluted to 6.6 μM.
# Column: Cosmosil 5C18-AR-300 (manufactured by Nacalai Tesque, 4.6×150 mm)
# as §3
# Radioactivity detector: STEFFI NaI scintillator (manufactured by Raytest)
# Eluant A: 0.1% TFA/purified water
# as §4, §5
# [4] = Tc-99m labeling at room temperature, radiochemical purity by TLC
# Experimental: as §9, §10
# Plate: Silica Gel 60F254 (manufactured by Merck)
# Developing solvent: 28% ammonia water/acetonitrile=½
# Radioactivity detector: Gita NaI scintillator (manufactured by Raytest)
# 12.5, 25, and 50 mg of arginine was weighed, then dissolved in water, and adjusted with hydrochloric acid to pH 10 to adjust each total amount to 700 μL. Molarities in these solutions are 102.5 mM, 205 mM, and 410 mM, respectively. Peptide 1 was dissolved in these aqueous solutions of arginine to prepare respective 9.4 μM peptide/arginine solutions. 25 μL of a solution of 10 mL of 0.01 M hydrochloric acid supplemented with 5 mg of stannous chloride solution was added to each of the peptide/arginine solutions, and 0.6 to 1.0 GBq of 99 mTcO4^− solution was quickly added thereto to adjust each total amount to 1 mL. After shaking for several seconds, the solutions were reacted at room temperature. A portion thereof was taken on 30 minutes, 90 minutes, 180 minutes, 360 minutes, 24 hours, and 30 hours after the labeling procedure to determine each radiochemical purity by TLC analysis under the conditions described in Example 5.
# [5] = 410 mM arginine solution, pH 11, peptide 94/99/161 μM
# [6] = solvent DMSO, peptide 94/99/161 μM
# [7] = solvent water, peptide 94 μM (Peptide 1), 99 μM (Peptide 2), 161 μM (Peptide 3)
# [8] = Tc-99m labeling in DMSO/phosphate buffer solution pH 10, room temperature, 10 minutes
# [9] = Tc-99m labeling in DMSO/phosphate buffer solution pH 10, room temperature, 90 minutes
# [10] = Tc-99m labeling in phosphate buffer solution pH 10, room temperature, 10 minutes
# [11] = 1 mM imidazole, pH 8, 94 μM peptide
# [12] = 90 mM histidine, pH 9, 94 μM peptide
# [13] = 100 mM disodium hydrogen phosphate, pH 9, 94 μM peptide
# [14] = 410 mM arginine, pH 9, 94 μM peptide
# [15] = 489 mM lysine, pH 9, 94 μM peptide
# [16] = aqueous solutions of arginine, lysine and histidine at pH 9 or more
substance,measurement,setting,value
formyl-Met-Leu-Phe-Lys-ε(-Gly-Asp-Ac—S-Bzl) (For-MLFKGD; not fully specified (C-terminus); printed as formyl-Met-Leu-Phe-Lys-ε(-Gly-Asp-Ac—S-Bzl); also: Gly-Asp attached through Lys epsilon-amino (branch)) [Peptide 3],Elution rate,[1]; [5],101.3%
same,Elution rate,[1]; [6],108.5%
same,Appearance,[2]; [5],"Colorless,"
same,Appearance,[2]; [6],"Colorless,"
same,Appearance,[2]; [7],Whitish
"formyl-Nle-Leu-Phe-Nle-Tyr-Lys(NH2)-ε(-Ser-D-Arg-Asp-Cys-Asp-Asp) (For-[Nle]LF[Nle]YKS[dR]DCDD; also: Lys(NH2): Lys α-carboxamide, Ser-D-Arg-Asp-Cys-Asp-Asp branch on Lys ε-amine) [Peptide 1]",Radiochemical purity (HPLC),[3]; [8],72.0%
same,Radiochemical purity (HPLC),[3]; [9],75.4%
same,Radiochemical purity (HPLC),[3]; [10],55.3%
same,Elution rate,[1]; [11],64.9%
same,Elution rate,[1]; [12],85.9%
same,Elution rate,"[1]; 90 mM histidine, pH 10, 94 μM peptide",90.7%
same,Elution rate,"[1]; 90 mM histidine, pH 11, 94 μM peptide",96.7%
same,Elution rate,[1]; [13],53.8%
same,Elution rate,[1]; [5],100.8%
same,Elution rate,"[1]; 410 mM arginine, pH 8.5, 94 μM peptide",43.8%
same,Elution rate,[1]; [14],93.8%
same,Elution rate,"[1]; 410 mM arginine, pH 9.5, 94 μM peptide",95.4%
same,Elution rate,"[1]; 410 mM arginine, pH 10, 94 μM peptide",98.8%
same,Elution rate,[1]; [15],89.0%
same,Elution rate,"[1]; 489 mM lysine, pH 10, 94 μM peptide",83.6%
same,Elution rate,"[1]; 489 mM lysine, pH 11, 94 μM peptide",85.9%
same,Elution rate,[1]; [16],≥ 85%
same,Elution rate,[1]; [6],98.6%
same,Appearance,[2]; [11],colorless and transparent
same,Appearance,"[2]; 1 mM imidazole, pH 8.5, 94 μM peptide",colorless and transparent
same,Appearance,"[2]; 1 mM imidazole, pH 9, 94 μM peptide",colorless and transparent
same,Appearance,[2]; [12],"colorless, transparent"
same,Appearance,[2]; [13],"colorless, transparent"
same,Appearance,"[2]; 243 mM sodium dihydrogen citrate, pH 9, 94 μM peptide",white turbidity; also recorded: Whitish
same,Appearance,"[2]; 401 mM sodium ascorbate, pH 9, 94 μM peptide",white turbidity; also recorded: Whitish
same,Appearance,[2]; [5],"Colorless,"
same,Appearance,"[2]; 410 mM arginine, pH 8, 94 μM peptide",Evident white turbidity
same,Appearance,[2]; [14],"colorless, transparent"
same,Appearance,[2]; [15],"colorless, transparent"
same,Appearance,"[2]; aqueous solutions of arginine, lysine and histidine at pH 8.5 or less",Weak white turbidity
same,Appearance,[2]; [16],"colorless, transparent"
same,Appearance,[2]; [6],"Colorless,"
same,Appearance,[2]; [7],Whitish
same,Radiochemical purity (TLC),"[4]; 102.5 mM arginine pH 10, 30 minutes after labeling",93.3%
same,Radiochemical purity (TLC),"[4]; 102.5 mM arginine pH 10, 90 minutes after labeling",92.6%
same,Radiochemical purity (TLC),"[4]; 102.5 mM arginine pH 10, 180 minutes after labeling",92.6%
same,Radiochemical purity (TLC),"[4]; 102.5 mM arginine pH 10, 360 minutes after labeling",91.2%
same,Radiochemical purity (TLC),"[4]; 102.5 mM arginine pH 10, 24 hours after labeling",88.9%
same,Radiochemical purity (TLC),"[4]; 102.5 mM arginine pH 10, 30 hours after labeling",89.8%
same,Radiochemical purity (TLC),"[4]; 205 mM arginine pH 10, 30 minutes after labeling",92.0%
same,Radiochemical purity (TLC),"[4]; 205 mM arginine pH 10, 90 minutes after labeling",90.8%
same,Radiochemical purity (TLC),"[4]; 205 mM arginine pH 10, 180 minutes after labeling",89.7%
same,Radiochemical purity (TLC),"[4]; 205 mM arginine pH 10, 360 minutes after labeling",89.7%
same,Radiochemical purity (TLC),"[4]; 205 mM arginine pH 10, 24 hours after labeling",88.3%
same,Radiochemical purity (TLC),"[4]; 205 mM arginine pH 10, 30 hours after labeling",87.3%
same,Radiochemical purity (TLC),"[4]; 410 mM arginine pH 10 (Example 6), 30 minutes after labeling",91.6%
same,Radiochemical purity (TLC),"[4]; 410 mM arginine pH 10 (Example 6), 90 minutes after labeling",89.5%
same,Radiochemical purity (TLC),"[4]; 410 mM arginine pH 10 (Example 6), 180 minutes after labeling",87.1%
same,Radiochemical purity (TLC),"[4]; 410 mM arginine pH 10 (Example 6), 360 minutes after labeling",85.7%
same,Radiochemical purity (TLC),"[4]; 410 mM arginine pH 10 (Example 6), 24 hours after labeling",86.5%
same,Radiochemical purity (TLC),"[4]; 410 mM arginine pH 10 (Example 6), 30 hours after labeling",84.9%
same,Radiochemical purity (TLC),[4]; [8],45.7%
same,Radiochemical purity (TLC),[4]; [9],41.9%
same,Radiochemical purity (TLC),[4]; [10],28.0%
same,Radiochemical purity (TLC),"[4]; Tc-99m labeling in phosphate buffer solution pH 10, room temperature, 90 minutes",33.6%
"formyl-Nle-Leu-Phe-Nle-Tyr-Lys(NH2)-ε(-Ser-D-Arg-DTPA*) (For-[Nle]LF[Nle]YKS[dR]; not fully specified (C-terminus); also: Lys(NH2): Lys α-carboxamide, Ser-D-Arg branch on Lys ε-amine, DTPA* at end of Ser-D-Arg branch) [Peptide 2]",Elution rate,[1]; [5],102.8%
same,Elution rate,[1]; [6],100.9%
same,Appearance,[2]; [5],"Colorless,"
same,Appearance,[2]; [6],"Colorless,"
same,Appearance,[2]; [7],Whitish
